Assay results taken from PMC12492669, “Malic enzyme-based system for transhydrogenation between nicotinamide cofactors” (Synthetic and Systems Biotechnology, 2025).

B1: DLDH∗ (D-lactate dehydrogenase, V152R/N213E mutant) (Lactobacillus helveticus; N213E/V152R) (protein)
chain: TKVFAYAIRKDEEPFLNEWKEAHKDIDVDYTDKLLTPETAKLAKGADGVVVYQQLDYTADTLQALADAGVTKMSLRNVGVDNIDMDKAKELGFQITNVPVYSPNAIAEHAAIQAARVLRQDKRMDEKMAKRDLRWAPTIGREVRDQVVGVRGTGHIGQVFMRIMEGFGAKVIAYDIFKNPELEKKGYYVDSLDDLYKQADVISLHVPDVPAEVHMINDKSIAEMKDGVVIVNCSRGRLVDTDAVIRGLDSGKIFGFVMDTYEDEVGVFNKDWEGKEFPDKRLADLIDRPNVLVTPHTAFYTTHAVRNMVVKAFNNNLKLINGEKPDSPVALNKNKF
notes: recombinant; only the V152R/N213E mutant tested; purification and tag not described in main text
B2: ME (Escherichia coli K-12) (protein)
chain: MEPKTKKQRSLYIPYAGPVLLEFPLLNKGSAFSMEERRNFNLLGLLPEVVETIEEQAERAWIQYQGFKTEIDKHIYLRNIQDTNETLFYRLVNNHLDEMMPVIYTPTVGAACERFSEIYRRSRGVFISYQNRHNMDDILQNVPNHNIKVIVVTDGERILGLGDQGIGGMGIPIGKLSLYTACGGISPAYTLPVVLDVGTNNQQLLNDPLYMGWRNPRITDDEYYEFVDEFIQAVKQRWPDVLLQFEDFAQKNAMPLLNRYRNEICSFNDDIQGTAAVTVGTLIAASRAAGGQLSEKKIVFLGAGSAGCGIAEMIISQTQREGLSEEAARQKVFMVDRFGLLTDKMPNLLPFQTKLVQKRENLSDWDTDSDVLSLLDVVRNVKPDILIGVSGQTGLFTEEIIREMHKHCPRPIVMPLSNPTSRVEATPQDIIAWTEGNALVATGSPFNPVVWKDKIYPIAQCNNAFIFPGIGLGVIASGASRITDEMLMSASETLAQYSPLVLNGEGMVLPELKDIQKVSRAIAFAVGKMAQQQGVAVKTSAEALQQAIDDNFWQAEYRDYRRTSI
notes: wild-type, recombinant

Experiments:
[1] = substrate: NC(=O)C1=CN([C@@H]2O[C@H](COP(=O)(O)OP(=O)(O)OC[C@H]3O[C@@H](n4ccc(N)nc4=O)[C@H](O)[C@@H]3O)[C@@H](O)[C@H]2O)C=CC1; assay: initial rates of pyruvate reduction, Michaelis-Menten fit; format: biochemical, Lactobacillus helveticus; settings: 10 mM pyruvate, 50 mM HEPES pH 7.5, 25 °C, varied: cofactor
[2] = substrate: NC(=O)C1=CN([C@@H]2O[C@H](COP(=O)(O)OP(=O)(O)OC[C@H]3O[C@@H](n4cnc5c(N)ncnc54)[C@H](O)[C@@H]3O)[C@@H](O)[C@H]2O)C=CC1; assay: as above; format: biochemical, Lactobacillus helveticus; settings: 10 mM pyruvate, 50 mM HEPES pH 7.5, 25 °C, varied: cofactor
[3] = substrate: NC(=O)C1=CN([C@@H]2O[C@H](COP(=O)(O)OP(=O)(O)OC[C@H]3O[C@@H](n4cnc5c(N)ncnc54)[C@H](OP(=O)(O)O)[C@@H]3O)[C@@H](O)[C@H]2O)C=CC1; assay: as above; format: biochemical, Lactobacillus helveticus; settings: 10 mM pyruvate, 50 mM HEPES pH 7.5, 25 °C, varied: cofactor
[4] = substrate: NC(=O)C1=CN([C@@H]2O[C@H](COP(=O)(O)OP(=O)(O)OC[C@H]3O[C@@H](n4cnc5c(N)ncnc54)[C@H](O)[C@@H]3O)[C@@H](O)[C@H]2O)C=CC1; assay: purified protein, by the assay type; parameters: initial rates at varied cofactor, absorbance at 340 nm, Michaelis-Menten fit, pH 7.5, 25 °C; settings: pH 7.5; 25.0 °C
Protocol: (§1) For malic enzymes involved in oxidative decarboxylation, the solution contained 5 mM L-malate and 2 mM MgCl2. For malic enzymes involved in reductive carboxylation, the solution included 10 mM pyruvate, 30 mM NaHCO3 and 2 mM MgCl2. For DLDH∗ involved in pyruvate reduction, initial pyruvate concentration was 10 mM. All reactions were performed in 50 mM HEPES (pH 7.5) at 25 °C, with kinetic data fitted to the Michaelis-Menten equation via nonlinear regression using GraphPad Prism 10.0.2. All assays were performed in triplicate, and error bars show standard deviation. Enzyme activity assays of pure enzymes were conducted in a total volume of 0.1 mL. […] The enzyme activity was monitored by measuring the absorbance at 340 nm using a microplate spectrophotometer (Bio-Tek, VT, USA), with continuous absorbance tracking throughout the assay. One unit of pure enzyme activity was defined as the amount of enzyme required to catalyze the production of 1 μmol NADH, NCDH or NADPH per minute under the specified assay conditions. A molar absorption coefficient of 6220 M^−1 cm^−1 for NADH, NCDH or NADPH was used in the calculations.

[5] = substrate: NC(=O)C1=CN([C@@H]2O[C@H](COP(=O)(O)OP(=O)(O)OC[C@H]3O[C@@H](n4cnc5c(N)ncnc54)[C@H](OP(=O)(O)O)[C@@H]3O)[C@@H](O)[C@H]2O)C=CC1; assay: purified protein, by the assay type; parameters: initial rates at varied cofactor, absorbance at 340 nm, Michaelis-Menten fit, pH 7.5, 25 °C; settings: pH 7.5; 25.0 °C
Protocol: as §1

[6] = substrate: NC(=O)c1ccc[n+]([C@@H]2O[C@H](COP(=O)(O)OP(=O)(O)OC[C@H]3O[C@@H](n4cnc5c(N)ncnc54)[C@H](OP(=O)(O)O)[C@@H]3O)[C@@H](O)[C@H]2O)c1; assay: purified protein, by the assay type; parameters: initial rates at varied cofactor, absorbance at 340 nm, Michaelis-Menten fit, pH 7.5, 25 °C; settings: pH 7.5; 25.0 °C
Protocol: as §1

Protein | Km [1] [µM] | Km [2] [µM] | Km [3] [µM] | Km [4] [µM] | kcat [4] [s⁻¹] | kcat/Km [4] [M⁻¹ s⁻¹] | Km [5] [µM] | kcat [5] [s⁻¹] | kcat/Km [5] [M⁻¹ s⁻¹] | Km [6] [µM] | kcat [6] [s⁻¹] | kcat/Km [6] [M⁻¹ s⁻¹]
B1 | 71.1 | 4840 | 2110 | – | – | – | – | – | – | – | – | –
B2 | – | – | – | 1080 ± 350 | 1.88 ± 0.35 | 1740 | 520 ± 120 | 0.01 | 20 | 11500 ± 1200 | 0.58 ± 0.05 | 50
